Data on one molecule can be found in article PMC11125907, “A Portable Readout System for Biomarker Detection with Aptamer-Modified CMOS ISFET Array”.

This data set has as its target cardiac troponin I (cTnI) (human, UniProt P19429 2-210). Nature of the data set: ISFET aptasensor; 1 mM Mg2+; AC mode 2.4 V, 10 kHz 0.1 Vp-p; LoD 3.27 ng/mL, linear range 3.27-625 ng/mL (no Kd); 10 mM Tris-HCl pH 7.7, 8 mM NaCl, 1 mM MgCl2; temperature not stated. To be noted: protein: recombinant.

cardiac troponin I (cTnI), sequence (P19429 2-210): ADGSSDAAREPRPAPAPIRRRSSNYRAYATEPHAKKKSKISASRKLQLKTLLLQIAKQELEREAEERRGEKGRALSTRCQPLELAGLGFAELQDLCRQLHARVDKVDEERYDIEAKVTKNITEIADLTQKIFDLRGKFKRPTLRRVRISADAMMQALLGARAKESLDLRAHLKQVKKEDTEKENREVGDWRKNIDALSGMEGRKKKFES

B1: Tro6 (ssDNA)
DNA: CGCATGCCAAACGTTGCCTCATAGTTCCCTCCCCGTGTCC
modifications: 5'-SH (thiol)
As to B1, the binding result is “binds”.
